In patent publication US10293027B2, “Methods for treating metabolic disorders using FGF” (Salk Institute for Biological Studies, priority 2010, dated 2019):
“Also recorded” adds a separate entry of the source.

Tests used:
Assay type in all cases: in vivo, mouse
ob/ob mice [1] = assay: Single s.c. injection of human FGF1 or other FGFs, blood glucose in ob/ob mice (Examples 13, 14); conditions: 0.5 mg/kg s.c.
Method: FIG. 26. Human recombinant FGF-1 is effective in mice.
FIG. 27. Comparison of FGF1, FGF2, FGF9, and FGF10 effects. Single subcutaneous injection of FGFs (0.5 mg/kg) in ob/ob mice.
As human recombinant FGF-1 is already being used in the clinic, the present methods of using it to treat metabolic disorders offer a straightforward regulatory path to treatment.
As explained above, the FGF family of factors bind to members of the FGFR family of receptors with different specificities. FGF-1 binds preferentially to FGFR1 and FGFR4, and can be internalized into a cell expressing these receptors. To determine if other FGF proteins have similar metabolic effects as FGF-1, we tested blood glucose in ob/ob mice treated with FGF-2, FGF-9, and FGF-10 (0.5 mg/kg s.c.). This combination of FGF proteins binds to the spectrum of FGFRs.

[2] = test system: diet-induced obesity mice (C57BL/6); assay: Single s.c. FGF-1 injection, blood glucose in DIO mice; conditions: single s.c. injection 0.5 mg/kg
Source text: FIG. 25. FGF1 effects in DIO mice.
(§1) The ob/ob model is considered to represent a very severe diabetic disease. In order to investigate the effect of FGF-1 on less severe diabetic/metabolic disorder models, we tested blood glucose levels in db/db mice and diet induced obese mice.

[3] = test system: db/db leptin receptor mutant diabetic mice; assay: Single s.c. FGF-1 injection, blood glucose in db/db mice; conditions: single s.c. injection 0.5 mg/kg
Source text: FIG. 24. FGF-1 effects in db/db mice. […] The db/db model is considered to represent a […] diabetes model than ob/ob.
as §1

ob/ob diabetic mice = assay: Delivery method (s.c., i.p., i.v.) and FGF-1 blood glucose effects (Example 11)
Method: FIG. 22. Assessment of delivery method on FGF-1 blood glucose effects.
FIG. 23. Assessment of delivery method on duration of FGF-1 activity. Single subcutaneous (sc) or intravenous (iv) injection of FGF-1 (0.5 mg/kg) in ob/ob mice.
To determine if the effects of FGF-1 depend on the route of administration, we tested blood glucose levels of ob/ob mice in response to 0.5 mg/kg body weight FGF-1 delivered s.c., i.p. and i.v. PBS injections were used as controls. […] We next compared i.v. and s.c. injections for duration of the glucose normalizing effect.

ob/ob mice [4] = assay: Glucose tolerance test after four weeks of FGF-1 administration; conditions: after four weeks of 0.5 mg/kg/3 days s.c.
Method: Glucose tolerance tests (GTT) were conducted after overnight fasting. Mice were injected intraperitoneally (i.p.) with 1 g of glucose per/kg body weight, and blood glucose was monitored at 0, 15, 30, 60, 90, and 120 min using a OneTouch Ultra glucometer (Lifescan Inc). Insulin tolerance tests (ITT) were conducted after overnight fasting. Mice were injected i.p. with 0.5 U of insulin/kg body weight (Humulin R; Eli Lilly), and blood glucose was monitored at 0, 15, 30, 60, 90, and 120 min using a OneTouch Ultra glucometer (Lifescan Inc). Real-time metabolic analyses were conducted in an undisturbed room under 12 h/12 h light/dark cycles using a Comprehensive Lab Animal Monitoring System (Columbus Instruments).
These tests were carried out as described above.

ob/ob male mice = assay: Daily FGF-1 or rosiglitazone treatment of ob/ob mice: fed blood glucose and body composition (Example 5)
Method: FIGS. 7A-7H. FGF-1 injection studies in rodents. (A) Fed blood glucose in ob/ob male mice treated with FGF-1 (0.5 mg/kg, s.c.), rosiglitazone (TZD, 5 mg/kg, p.o.), or vehicle. FGF-1 was administered once daily, and blood glucose levels were measured at day 0 (basal levels before FGF-1 injection), day 3, and day 6, 1 hour after injection. The values (±SE) shown are the average of the measurements of 5 animals in a group; (B) Sustained glucose lowering effects of FGF-1: Fed blood glucose levels in ob/ob mice at indicated time points after the last FGF-1 injection at day 6. (C-H): 72 hrs after the sixth dose, another dose was given and effects of FGF-1 and TZD on (C) body weight, (D) total body fat, (E) lean weight, (F) weight gain, (G) liver weight, and (H) heart weight were determined.
In Example 5, ob/ob male mice (8 wk old) were randomized into three groups and treated with daily subcutaneous (s.c.) injections of recombinant mouse FGF-1 (0.5 mg/kg in PBS), oral rosiglitazone (TZD, 5 mg/kg in 0.5% carboxymethyl cellulose), or vehicle. Blood glucose levels were measure in fed animals one hour after treatment. Total body composition analysis was performed using an EchoMRI-100™ (Echo Medical Systems, LLC).
Eight-week-old male ob/ob mice were treated with recombinant mouse FGF-1 (0.5 mg/kg/day, s.c. in 250 μl), rosiglitazone (TZD, 5 mg/kg/day, p.o. in 300 μl), or vehicle control (s.c. vehicle control 0.9% NaCl, 250 μl/mouse; p.o. vehicle control 0.5% CMC, 300 μl/mouse). Blood glucose was measured one hour after treatment at day 3 and day 6 using a standard protocol. (FIG. 7A).
Before treatment, all groups were severely hyperglycemic, as indicated by blood glucose levels of about 400 mg/dl. […] At 6 days, blood glucose levels were even further reduced to around 130-140 mg/dl for both groups. After the sixth dose, blood glucose levels were monitored for another 72 hrs. During this period, both FGF-1- and TZD-treated cohorts maintained normoglycemic levels (<140 mg/dl) for at least 48 hrs (FIG. 7B). At 72 hrs after the sixth dose, a final dose was given, and 12 hrs later, a total body composition analysis was performed by MRI followed by necropsy.

B1: FGF-1: recombinant mouse FGF-1 (acidic fibroblast growth factor), a secreted protein that binds heparin and FGF receptors (protein, UniProt P61148 16-155, looked up)
Fibroblast growth factor 1: FNLPLGNYKKPKLLYCSNGGHFLRILPDGTVDGTRDRSDQHIQLQLSAESAGEVYIKGTETGQYLAMDTEGLLYGSQTPNEECLFLERLEENHYNTYTSKKHAEKNWFVGLKKNGSCKRGPRTHYGQKAILFLPLPVSSD
ob/ob mice [1]
  blood glucose in ob/ob mice after a single s.c. injection: Only FGF1 has glucose normalizing effects
[2]; 0.5 mg/kg
  blood glucose in diet-induced obesity mice: effective for reducing blood glucose levels in both systems
[2]; listed as FGF1, 0.5 mg/kg
  blood glucose in diet-induced obesity mice: normalizes blood glucose
[3]
  blood glucose in db/db mice: effective for reducing blood glucose levels in both systems; also recorded: normalizes blood glucose
ob/ob diabetic mice; 0.5 mg/kg
  acute blood glucose effect by s.c., i.p. and i.v. delivery: about the same for all three injection methods
ob/ob diabetic mice; 0.5 mg/kg i.v., duration of the test
  time of stable glucose levels after intravenous administration: at least 60 hours
ob/ob diabetic mice; single injection 0.5 mg/kg
  duration of glucose normalizing effect, iv compared to sc: persist longer when administered iv as compared to sc
ob/ob mice [4]
  glucose tolerance (GTT): cleared glucose more effectively than untreated controls; also recorded: enhances glucose tolerance
ob/ob male mice; fed ob/ob male mice, one hour after treatment, FGF-1 0.5 mg/kg/day s.c., TZD 5 mg/kg/day p.o., about 400 mg/dl before treatment
  blood glucose levels at day three: about 200 mg/dl
ob/ob male mice; ob/ob diabetic mice, FGF-1 administration
  blood glucose (in words): decreases fed blood glucose in ob/ob mice; also recorded: normalizes their glucose levels
ob/ob male mice; ob/ob mice, total body composition by MRI
  fat-lean ratio: improves their fat-lean ratio
